The results in this text go back to patent publication EP1593386A1 (Charité - Universitätsmedizin Berlin, dated 2005).

The target in this assay is T1, CD7 on human peripheral blood T lymphocytes (human, UniProt P09564 26-240).
T1 construct: whole, on cells
T1 sequence (looked up): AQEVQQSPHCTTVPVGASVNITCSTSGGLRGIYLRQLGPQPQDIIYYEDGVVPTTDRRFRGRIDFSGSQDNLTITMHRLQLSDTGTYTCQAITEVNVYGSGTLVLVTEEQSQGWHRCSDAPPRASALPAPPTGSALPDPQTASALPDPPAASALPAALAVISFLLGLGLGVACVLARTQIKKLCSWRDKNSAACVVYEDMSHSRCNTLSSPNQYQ
The assay can be described thus: pull-down with galectin-2 coated tosyl-activated magnetic beads on PBT, immunoblot for CD7.

B1: galectin-2 (ligand, UniProt P05162 1-132, looked up)
chain: MTGELEVKNMDMKPGSTLKITGSIADGTDGFVINLGQGTDKLNLHFNPRFSESTIVCNSLDGSNWGQEQREDHLCFSPGSEVKFTVTFESDKFKVKLPDGHELTFPNRLGHSHLSYLSVRGGFNMSSFKLKE
modifications: biotin-labelled (sites not given) in the flow cytometry assays; coupled to tosyl-activated magnetic beads in the co-immunoprecipitation
notes: also called Gal-2; biotin-labelled galectin-2
As for B1, the binding result is “no binding”.
